Legend:
[1] = system: Nc1ccn([C@@H]2O[C@H](CO)[C@@H](O)C2(F)F)c(=O)n1; assay: purified protein, by the assay type; settings: other: nucleoside as substrate, pH 7.5
[2] = system: Nc1ccn([C@H]2CC[C@@H](CO)O2)c(=O)n1; assay: purified protein, by the assay type; settings: other: nucleoside as substrate, dCK 0.4 μM, ATP•Mg 1 mM, 37° C., pH 7.5
[3] = dCK 0.4 μM, ATP•Mg 1 mM, 37° C.

Wild Type dCK (Homo sapiens), sequence (chain, as listed by the source): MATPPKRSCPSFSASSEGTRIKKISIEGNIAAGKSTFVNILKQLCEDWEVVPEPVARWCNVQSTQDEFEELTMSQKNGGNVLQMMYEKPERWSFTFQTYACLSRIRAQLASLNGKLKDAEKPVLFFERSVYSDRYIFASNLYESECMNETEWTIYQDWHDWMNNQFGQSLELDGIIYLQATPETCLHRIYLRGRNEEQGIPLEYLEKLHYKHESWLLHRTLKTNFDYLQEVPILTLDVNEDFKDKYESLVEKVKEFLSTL
A100V/R104M/D133A-dCK (Homo sapiens; A100V/D133A/R104M), sequence (chain, as listed by the source A100V R104M D133A A100V D133A R104M): as the sequence (chain, as listed by the source) above, with A100V, R104M, D133A counted along it

Row | Substance | Km ([1]; triple mutant, 37.0 °C) [µM] | kcat ([1]; triple mutant, 37.0 °C) [s⁻¹] | kcat/Km ([1]; triple mutant, 37.0 °C) [M⁻¹ s⁻¹] | Km [1, 3] [µM] | kcat [1, 3] [s⁻¹] | kcat/Km [1, 3] [M⁻¹ s⁻¹] | Km [2] [µM] | kcat [2] [s⁻¹] | kcat/Km [2] [M⁻¹ s⁻¹]
1 | A100V/R104M/D133A-dCK (Homo sapiens; A100V/D133A/R104M) | 50 | 3.52 | 70400 | – | – | – | – | – | –
2 | Wild Type dCK (Homo sapiens) | – | – | – | 22.0 | 0.37 | 16800 | 406.8 | 0.18 | 400

Source: patent US7858745B2, “Use of specifically engineered enzymes to enhance the efficacy of prodrugs” (The Board of Trustees of the University of Illinois, priority 2003, dated 2010)
